Experimental findings from US20220332804A1 (CSL INNOVATION, published 2022) are described below.

Changes are numbered by the printed parent chain.

Holding throughout (assay): SPR, KD relative to WT C2;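 further: biacore SPR at 37 °C, anti-C2 mAbs captured on anti-human IgG chips with alanine or serine point mutants of C2 as analyte, KD from 1:1 fit compared with wild-type C2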
A general note: In SPR one partner is held on a chip, and binding of the other changes the refractive index at the surface.

One assay deals with T1, human C2 L453A (human, UniProt P06681 21-752).
T1 sequence: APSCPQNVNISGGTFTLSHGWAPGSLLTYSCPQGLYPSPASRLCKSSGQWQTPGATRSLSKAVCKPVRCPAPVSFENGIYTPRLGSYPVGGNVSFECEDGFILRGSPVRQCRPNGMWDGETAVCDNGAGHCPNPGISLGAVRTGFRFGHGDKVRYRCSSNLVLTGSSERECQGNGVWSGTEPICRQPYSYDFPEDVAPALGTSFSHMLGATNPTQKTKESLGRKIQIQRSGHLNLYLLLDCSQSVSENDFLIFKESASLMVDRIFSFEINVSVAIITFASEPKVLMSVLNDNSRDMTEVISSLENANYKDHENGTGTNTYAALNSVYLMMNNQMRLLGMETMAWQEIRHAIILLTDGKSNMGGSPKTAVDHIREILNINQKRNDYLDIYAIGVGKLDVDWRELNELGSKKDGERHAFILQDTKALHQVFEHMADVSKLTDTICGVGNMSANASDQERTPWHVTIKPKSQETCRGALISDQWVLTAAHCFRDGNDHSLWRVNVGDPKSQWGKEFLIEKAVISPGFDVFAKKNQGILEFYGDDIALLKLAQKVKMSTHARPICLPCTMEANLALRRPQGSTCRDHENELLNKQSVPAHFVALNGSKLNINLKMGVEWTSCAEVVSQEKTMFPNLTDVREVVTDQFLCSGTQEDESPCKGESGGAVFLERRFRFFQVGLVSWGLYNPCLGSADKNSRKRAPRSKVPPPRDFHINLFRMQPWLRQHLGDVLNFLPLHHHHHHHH

The target of a further assay is T2, human C2 Q447A (human, UniProt P06681 21-752).
T2 sequence: T1 sequence with Q427A, A433L

A further assay concerns the target T3, human C2 A326S (human, UniProt P06681 21-752).
T3 sequence: T1 sequence with A306S, A433L

For a further assay, the target named is T4, human C2 N467A (human, UniProt P06681 21-752).
T4 sequence: T1 sequence with A433L, N447A

B1: RF16-242 (antibody, human IgG4 S228P, lambda, V domains shown)
VH: EVQLLQSGAEVKKPGESLKISCKGSGYSFTSYWIGWVRQMPGKGLEWMGIIYPGDSDTRYSPSFQGQVTISADKSISTAYLQWSSLKASDTAMYYCARRGHYGDYFDYWGQGTLVTVSS
VL: SYELTQPPSVSVSPGQTARITCSGDALPKKYAYWYHQKSGQAPVLVIYEDRRRPSEIPERFSGSSSGTMATLTITGAQVEDEGVYFCYSRDRAGNQRVFGGGTQLTVLG
notes: pH-dependent anti-C2 antibody from a phage display library
Consider B1, for which the Fold diff in the assay with human C2 L453A stood at 1 fold; with human C2 Q447A, 4 fold; with human C2 A326S, 1 fold; in the assay with human C2 N467A, 2 fold.
